{"source": "patent US7745575B1", "about": "(Cellpep Pharma Inc., priority 2004, dated 2010)", "molecules": {"B1": {"name": "[Δ^1]-OsK1-NH2 (peptide)", "peptide": "VIINVKCKISRQCLEPCKKAGMRFGKCMNGKCHCTPK-NH2", "modifications": "ends and bridges not checked"}, "B2": {"name": "[K^16]-OsK1 (peptide)", "peptide": "GVIINVKCKISRQCLKPCKKAGMRFGKCMNGKCHCTPK", "modifications": "ends and bridges not checked; cysteine pairing not given here"}, "B3": {"name": "[D^20]-OsK1 (peptide)", "peptide": "GVIINVKCKISRQCLEPCKDAGMRFGKCMNGKCHCTPK", "modifications": "ends and bridges not checked; cysteine pairing not given here"}}, "key": {"[1]": {"target": "hIK1 (KCa3.1) (Homo sapiens, UniProt O15554)", "sequence (O15554 whole entry, the tested form may be a part)": "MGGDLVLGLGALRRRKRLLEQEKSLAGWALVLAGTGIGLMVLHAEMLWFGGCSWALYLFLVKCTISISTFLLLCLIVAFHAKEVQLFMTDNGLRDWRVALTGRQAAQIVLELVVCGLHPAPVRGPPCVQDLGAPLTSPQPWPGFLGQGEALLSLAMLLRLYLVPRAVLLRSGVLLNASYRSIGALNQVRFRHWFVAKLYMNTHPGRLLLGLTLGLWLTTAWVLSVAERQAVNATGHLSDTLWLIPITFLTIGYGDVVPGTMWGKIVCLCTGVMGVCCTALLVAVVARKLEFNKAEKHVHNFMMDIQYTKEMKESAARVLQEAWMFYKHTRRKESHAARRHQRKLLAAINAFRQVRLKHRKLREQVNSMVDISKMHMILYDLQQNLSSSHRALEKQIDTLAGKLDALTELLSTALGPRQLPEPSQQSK", "assay": "patch-clamp whole-cell recording, Ca2+-activated K+ current block", "type": "cell-based", "method": "(§1) Electrophysiological experiments were carried out at 22-24° C. using the patch-clamp whole-cell recording mode. Cells were bathed with mammalian Ringer's solution (in mM): 160 NaCl, 4.5 KCl, 2 CaCl2, 1 MgCl2, and 10 HEPES (pH 7.4 with NaOH), with an osmolarity of 290-320 mOsm. […] A syringe-driven perfusion device was used to exchange the external recording bath solution. Two internal pipette solutions were used, one for measuring voltage-gated K^+ currents that contained (in mM): 155 KF, 2 MgCl2, 10 HEPES, and 10 EGTA (pH 7.2 with KOH), with an osmolarity of 290-320 mOsm and another for measuring Ca^2+-activated K^+ currents that contained (in mM): 135 K-aspartate, 8.7 CaCl2, 2 MgCl2, 10 EGTA, 10 HEPES (pH 7.2 with KOH), with an osmolarity of 290-320 mOsm. A free [Ca^2+]i of 1 μM was calculated. All currents through voltage-gated K^+ channels were elicited by 200 ms depolarising voltage steps from −80 to +40 mV. Potassium currents through KCa1.1, KCa2.1 and KCa3.1 were elicited by 1 μM internal [Ca^2+]i and 400 ms voltage ramps from −120 to 0 mV (for KCa3.1 channel and KCa1.1 channel) and from −120 to +40 mV (for KCa2.1 channel). Electrodes were pulled from glass capillaries (Science Products, Germany), and fire-polished to resistances of 2.5-5 MΩ. Membrane currents were measured with an EPC-9 or EPC-10 patch-clamp amplifier (HEKA Elektronik, Lambrecht, Germany) interfaced to a Macintosh computer running acquisition and analysis software (Pulse and PulseFit). When voltage-gated K^+ currents were measured, the capacitive and leak currents were subtracted using a P/10 procedure. Series resistance compensation (>80%) was used for currents above 2 nA. The holding potential was −80 mV in all experiments."}, "[2]": {"assay": "toxicity in vivo, LD50 after intracerebroventricular injection", "settings": "mouse, icv or intrathecal, 20 g C57/BL6 mice", "method": "Groups of six to eight mice per dose were injected with 5 μl peptide solution containing 0.1% (w/v) bovine serum albumin and 0.9% (w/v) NaCl. The LD50 values are set out in Table 5."}, "[3]": {"target": "T1, hKv3.2 (Homo sapiens, UniProt Q96PR1)", "T1 sequence (Q96PR1 1-638)": "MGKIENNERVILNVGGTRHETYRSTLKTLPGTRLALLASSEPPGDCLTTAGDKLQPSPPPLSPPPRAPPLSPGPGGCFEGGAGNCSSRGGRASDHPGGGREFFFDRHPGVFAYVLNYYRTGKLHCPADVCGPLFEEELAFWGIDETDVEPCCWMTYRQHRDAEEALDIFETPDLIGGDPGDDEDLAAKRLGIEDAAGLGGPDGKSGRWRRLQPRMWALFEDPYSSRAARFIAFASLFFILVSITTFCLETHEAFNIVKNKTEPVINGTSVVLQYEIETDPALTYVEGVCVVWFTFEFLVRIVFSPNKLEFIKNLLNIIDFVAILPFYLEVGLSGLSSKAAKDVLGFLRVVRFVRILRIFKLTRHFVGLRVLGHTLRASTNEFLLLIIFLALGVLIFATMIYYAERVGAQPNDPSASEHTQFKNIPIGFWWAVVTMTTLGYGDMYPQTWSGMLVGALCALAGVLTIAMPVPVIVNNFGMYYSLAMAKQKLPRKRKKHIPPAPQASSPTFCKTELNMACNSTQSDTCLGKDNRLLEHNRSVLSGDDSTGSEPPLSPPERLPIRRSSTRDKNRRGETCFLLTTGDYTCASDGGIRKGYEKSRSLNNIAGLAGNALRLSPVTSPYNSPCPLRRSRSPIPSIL", "assay": "patch-clamp whole-cell recording, K+ current block", "type": "cell-based", "method": "as §1"}, "[4]": {"target": "hKv1.2 (human (only by the printed prefix h), UniProt P16389)", "assay": "cell-based or functional assay"}, "[5]": {"target": "mKv1.3 (mouse (only by the printed prefix m), UniProt P16390)", "assay": "cell-based or functional assay"}, "[6]": {"target": "hIK1 (human (only by the printed prefix h), UniProt O15554)", "assay": "cell-based or functional assay"}, "[7]": {"target": "T2, hKv3.2 (human (only by the printed prefix h), UniProt Q96PR1)", "T2 sequence": "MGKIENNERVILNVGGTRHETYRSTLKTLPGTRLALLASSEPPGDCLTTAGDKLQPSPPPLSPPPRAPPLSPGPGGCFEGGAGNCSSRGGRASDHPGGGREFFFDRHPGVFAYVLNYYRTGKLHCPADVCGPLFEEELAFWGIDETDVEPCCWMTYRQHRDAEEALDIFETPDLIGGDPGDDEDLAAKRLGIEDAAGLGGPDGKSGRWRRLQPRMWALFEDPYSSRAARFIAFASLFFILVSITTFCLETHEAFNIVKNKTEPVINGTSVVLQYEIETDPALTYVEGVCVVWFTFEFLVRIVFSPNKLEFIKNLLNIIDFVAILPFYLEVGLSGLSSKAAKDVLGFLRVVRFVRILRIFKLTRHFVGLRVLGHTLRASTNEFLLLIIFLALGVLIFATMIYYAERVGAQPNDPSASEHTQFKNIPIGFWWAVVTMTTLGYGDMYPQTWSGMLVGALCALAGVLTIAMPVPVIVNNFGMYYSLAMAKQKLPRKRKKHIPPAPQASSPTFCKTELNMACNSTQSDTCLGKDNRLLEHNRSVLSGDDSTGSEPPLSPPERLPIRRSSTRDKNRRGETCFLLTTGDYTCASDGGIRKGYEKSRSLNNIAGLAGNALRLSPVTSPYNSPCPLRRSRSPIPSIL", "assay": "cell-based or functional assay"}, "[8]": {"target": "mKv1.1 (mouse (only by the printed prefix m), UniProt P16388)", "assay": "cell-based or functional assay"}}, "note": "Bridge positions count the residues as written; N and C are the ends. Ends that are not written are not given here. Peptide text beside a SMILES is read from it."}
{"molecule": "CC[C@H](C)[C@@H]1NC(=O)[C@H](CCCCN)NC(=O)[C@@H](NC(=O)[C@H](CCCCN)NC(=O)[C@@H](NC(=O)[C@H](CC(N)=O)NC(=O)[C@@H](NC(=O)[C@H](CCCCN)NC(=O)[C@@H](NC(=O)CN)C(C)C)[C@@H](C)CC)C(C)C)CSSC[C@@H]2NC(=O)[C@H](CCCCN)NC(=O)CNC(=O)[C@H](Cc3ccccc3)NC(=O)[C@H](CCCNC(=N)N)NC(=O)[C@H](CCSC)NC(=O)CNC(=O)[C@H](C)NC(=O)[C@H](CC(=O)O)NC(=O)[C@H](CCCCN)NC(=O)[C@@H]3CSSC[C@@H](C(=O)N[C@H](C(=O)N4CCC[C@H]4C(=O)N[C@@H](CCCCN)C(N)=O)[C@@H](C)O)NC(=O)[C@H](Cc4c[nH]cn4)NC(=O)[C@H](CSSC[C@H](NC(=O)[C@H](CCC(N)=O)NC(=O)[C@H](CCCNC(=N)N)NC(=O)[C@H](CO)NC1=O)C(=O)N[C@@H](CC(C)C)C(=O)N[C@@H](CCCCN)C(=O)N1CCC[C@H]1C(=O)N3)NC(=O)[C@H](CCCCN)NC(=O)CNC(=O)[C@H](CC(N)=O)NC(=O)[C@H](CCSC)NC2=O", "note": "(H-GVKINVKCKISRQCLKPCKDAGMRFGKCMNGKCHCTPK-NH2; disulfide 8-28, 14-33, 18-35)", "values": [{"measurement": "IC50", "setting": "[1]", "value": "> 1000", "unit": "nM"}, {"measurement": "LD50", "setting": "[2]", "value": 2.25, "unit": "µg/kg"}, {"measurement": "IC50", "setting": "[3]", "value": "> 1000", "unit": "nM"}]}
{"molecule": "CC[C@H](C)[C@@H]1NC(=O)[C@H](CCCCN)NC(=O)[C@@H](NC(=O)[C@H](CCCCN)NC(=O)[C@@H](NC(=O)[C@H](CC(N)=O)NC(=O)[C@@H](NC(=O)[C@@H](NC(=O)[C@@H](NC(=O)CNC(C)=O)C(C)C)[C@@H](C)CC)[C@@H](C)CC)C(C)C)CSSC[C@@H]2NC(=O)[C@H](CCCCN)NC(=O)CNC(=O)[C@H](Cc3ccccc3)NC(=O)[C@H](CCCNC(=N)N)NC(=O)[C@H](CCSC)NC(=O)CNC(=O)[C@H](C)NC(=O)[C@H](CCCCN)NC(=O)[C@H](CCCCN)NC(=O)[C@@H]3CSSC[C@@H](C(=O)N[C@H](C(=O)N4CCC[C@H]4C(=O)N[C@@H](CCCCN)C(N)=O)[C@@H](C)O)NC(=O)[C@H](Cc4c[nH]cn4)NC(=O)[C@H](CSSC[C@H](NC(=O)[C@H](CCC(N)=O)NC(=O)[C@H](CCCNC(=N)N)NC(=O)[C@H](CO)NC1=O)C(=O)N[C@@H](CC(C)C)C(=O)N[C@@H](CCC(=O)O)C(=O)N1CCC[C@H]1C(=O)N3)NC(=O)[C@H](CCCCN)NC(=O)CNC(=O)[C@H](CC(N)=O)NC(=O)[C@H](CCSC)NC2=O", "note": "[Ac-OsK1-NH2]", "values": [{"measurement": "LD50", "setting": "[2]", "value": 11, "unit": "µg/kg"}, {"measurement": "IC50", "setting": "[3]", "value": "> 1000", "unit": "nM"}]}
{"molecule": "B1", "values": [{"measurement": "ID50", "setting": "[4]", "value": 85, "unit": "nM"}, {"measurement": "ID50", "setting": "[5]", "value": 0.038, "unit": "nM"}, {"measurement": "ID50", "setting": "[6]", "value": 620, "unit": "nM"}, {"measurement": "ID50", "setting": "[7]", "value": "> 1", "unit": "µM"}, {"measurement": "ID50", "setting": "[8]", "value": 2.06, "unit": "nM"}]}
{"molecule": "B2", "values": [{"measurement": "ID50", "setting": "[4]", "value": 5.23, "unit": "nM"}, {"measurement": "ID50", "setting": "[5]", "value": 0.067, "unit": "nM"}, {"measurement": "ID50", "setting": "[6]", "value": 151, "unit": "nM"}, {"measurement": "ID50", "setting": "[8]", "value": 0.63, "unit": "nM"}]}
{"molecule": "B3", "values": [{"measurement": "ID50", "setting": "[4]", "value": 77.8, "unit": "nM"}, {"measurement": "ID50", "setting": "[5]", "value": 0.037, "unit": "nM"}, {"measurement": "ID50", "setting": "[6]", "value": 716, "unit": "nM"}, {"measurement": "ID50", "setting": "[8]", "value": 2.95, "unit": "nM"}]}
